These results are taken from patent publication US20210369812A1, “OSTEOINDUCTIVE PEPTIDES, COMPOSITIONS, IMPLANTS, AND METHODS OF USE” (The Board of Regents of the University of Oklahoma, priority 2018, published 2021).

In assay [1] the target is T1, BMPR1A (Homo sapiens, UniProt P36894).
T1 construct: purchased G&P Biosciences
Put plainly: Biopanning of Ph.D.-12 phage library on immobilized BMPR1A-Fc. Format: binding. As to conditions: peptide displayed on p3 of M13 phage; 3 rounds of panning. The method, then:
(§1) The Ph.D.™-12 phage library was diluted in tris-buffered saline mixed with Tween-20 (TBS+0.1% v/v Tween-20 and abbreviated TBST) for a final concentration of 2×10^11 phage in 1 mL of TBST. The diluted library was then pipetted onto one of the wells of a 12-well poly-L-lysine plate followed by rocking the plate gently for 60 minutes at room temperature. […] This supernatant served as the starting phage library for subsequent binding selections. The phages which stuck to the plate were discarded.
(§2) This procedure is only applicable if the charge of the desired protein to be immobilized is negative, determined by checking the pI value of the protein. […]. This procedure was written for 12-well plates coated in poly-L-lysine (positively charged). Separate solutions of BMPR1A-Fc and BMPR2-Fc were prepared at 80 μg/ml in Tris-buffered saline (pH 7.5). In separate wells and on separate poly-L-lysine coated 12-well plates, 0.3 ml of each solution of receptor was added. The solutions of BMPR1A-Fc and BMPR2-Fc were swirled around the plate surface until the entire surface was wet. The plates were then incubated overnight at 4° C. with gentle agitation in a humidified container (a sealed plastic box with damp paper towels). Each individual receptor was now immobilized.
(§3) The following selection procedure is based off of the direct coating procedure outlined in the Ph.D.™-12 Phage Display Libraries instructional manual (New England Biolabs) with some alterations. This procedure was carried out after immobilizing the targets BMPR1A-Fc and BMPR2-Fc in a 12-well poly-L-lysine coated plate. A stock solution of tetracycline was prepared (20 mg/ml in 1:1 ethanol:water). The coating solution containing the target receptors was poured off followed by firmly slapping the plates face down on a clean paper towel. Each well was then filled with blocking buffer (0.1 M NaHCO3 (pH 8.6), 5 mg/mL BSA, 0.02% NaN3. Filter sterilize, store at 4° C.) and incubated for 1 hour at 4° C. The blocking solution was then poured off followed by firmly slapping the plates down against a clean paper towel. Each plate was washed rapidly 6 times with Tris-buffered saline mixed with Tween-20 (TBS+0.1% v/v Tween-20). The plate was slapped against a clean paper towel each time. 1 ml of the phage library created from the negative selection process was then pipetted onto each of the target coated wells. The plates were then rocked gently at room temperature for 60 min. The non-binding phages were then discarded by pouring off the supernatant and slapping the plate face-down on a clean paper towel. The plate was then washed 10 times with TBST followed by slapping the plate face-down on a clean paper towel each time (a clean section of paper towel was used each time to prevent cross-contamination). The bound phages were then eluted by incubating with a nonspecific disruption buffer (0.2 M Glycine-HCl (pH 2.2), 1 mg/ml bovine serum albumin (BSA) for 15 minutes. The eluate (immersed in the disruption buffer) was then pipetted into a microcentrifuge tube followed by neutralization with 150 μl of 1 M Tris-HCl (pH 9.1). A small portion (˜1 μl) of this eluate could be titered and sequenced if desired. The rest of the eluate was amplified (see amplification of phage library section). Once amplified, the eluate was also titered. Determine the concentration of amplified phages by counting the blue plaques in titering as described. Dilute the amplified library to contain 2×10^11 phages in 1 mL of TBS (as little as 10^9 plaque forming units per ml can be used if there is not enough). A second poly-L-lysine 12-well plate was then coated with the target receptors to allow for a second round of biopanning carried out using the same steps except that the Tween-20 concentration in the wash steps was raised to 0.5% (v/v). The eluate from the second round was then amplified, titered and used in an additional 3rd round of panning on newly receptor coated plates. […]

Assay [2] concerns the target T2, BMPR2 (Homo sapiens, UniProt Q13873).
T2 construct: purchased G&P Biosciences
T2 sequence (Q13873 27-150 limits assumed): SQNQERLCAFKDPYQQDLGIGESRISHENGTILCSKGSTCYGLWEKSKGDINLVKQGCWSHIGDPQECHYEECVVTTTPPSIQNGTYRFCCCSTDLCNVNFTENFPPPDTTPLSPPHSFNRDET
Put plainly: Biopanning of Ph.D.-12 phage library on immobilized BMPR2-Fc. It is filed as binding. Particulars: peptide displayed on p3 of M13 phage; 3 rounds of panning. The procedure:
as §1, §2, §3

For assay [3], the system named is human mesenchymal stem cells (hMSCs). The assay is described as follows: Live cell binding through immunofluorescence. Format: cell-based. Particulars: 10^12 phages/ml. The method, then:
Human mesenchymal stem cells (hMSCs) were grown to roughly 60% plate coverage in a 48-well tissue culture plate according to the company Lonza's culturing protocols. […] The hMSCs were then blocked with 0.5% BSA (dissolved in cell media) for 1 hour. The cell media for the hMSCs was then replaced with 1 ml of new cell media having of concentration of 10^12 phages/ml. Next, the plates were washed once with 400 μl of phosphate buffered saline (PBS) at a pH of 7.4. The hMSCs were then incubated with Anti-M13 Bacteriophage Coat Protein g8p antibody [RL-ph2] (ab9225) at a 1:1000 dilution in cell media (200 μl per well). The wells were then washed again with PBS (400 μl per wash). Next, the hMSCs were incubated with the secondary antibody, Goat-anti mouse AF-488 (Abcam) for 1 hour (1 ug/ml final concentration of antibody in media). The wells were then washed again with PBS (400 μl per wash). A Hoechst nuclear stain was used to stain the nuclei (PureBlu™ Hoechst 33342 Nuclear Staining Dye #1351304 from BioRad) according to the company's protocol. Cell Mask™ Orange Plasma Membrane Stain was used to stain membranes (CellMask™ Orange Plasma Membrane Stain Catalog number: C10045 from Thermo Fisher Scientific) according to the company's protocol. The phages binding to the cells were then imaged on a Nikon Eclipse Ti fluorescent microscope.

For assay [4], the target named is T2, BMPR2. The assay is described as follows: Enzyme-linked immune sorbent assay for receptor binding (BMPR2). Particulars: peptide on p3 of M13 phage; absorbance 450 nm; n=4; vs wild type phage. From the text:
(§4) Groups having the same lowercase letter assigned (above the bar) were not statistically different from each other. Groups having different letters assigned (above the bar) were statistically different from each other. […] The primary antibody was mouse anti-g3p (p8) IgG. The secondary antibody was anti-mouse IgG conjugated with horseradish peroxidase. The substrate, 3,3′,5,5′-Tetramethylbenzidine was detected at 450 nm after stopping the reaction with 1 M HCl.
(§5) Blocking buffer (0.1 M NaHCO3 (pH 8.6), 5 mg/ml BSA. Filter sterilized, stored at 4° C.) was prepared. TBS (50 mM Tris-HCl (pH 7.5), 150 mM NaCl, autoclaved, stored at room temperature) was prepared. Separate solutions of the target receptors were then made. For BMPR1A, a 10 μg/ml stock solution was made. For BMPR2, a 10 μg/ml solution was also made. Separate wells with n=4 for each different peptide bearing phage group were then coated with one of the receptors. […] After a brief pilot test, it should be noted that using 10^10 phage/ml was determined to work best, but other concentrations of virus also worked consistently. […] Then, […] of freshly prepared 3,3′,5,5′-Tetramethylbenzidine (TMB) was added to each well and the absorbance at 370 nm and 652 nm was monitored for 1 hour using an ELISA plate reader. […] The absorbance at 450 nm for each well was then measured.

The target in assay [5] is T1, BMPR1A. Put plainly: Enzyme-linked immune sorbent assay for receptor binding (BMPR1A). Particulars: peptide on p3 of M13 phage; absorbance 450 nm; n=4; vs wild type phage.
Excerpt: as §4
as §5, with “receptors. The coating was done by adding 100 μl of the target solution to wells of a 96-well plate followed by swirling until the surface was completely wet. The plates were then allowed to incubate overnight at 4° C. with gentle agitation in a humidified container (a plastic box lined with damp paper towels). Any excess target solution was then removed, and the plate was slapped face-down on a clean paper towel. The wells of the plate were then blocked with 200 μl of blocking buffer for 1 hour at room temperature. […] The blocking buffer was then removed from each plate followed by 5 washes with 200 μl of TBST. Each time the plate was slapped against a clean section of paper towel face-down.” for “receptors.”

“Also recorded” adds a separate entry of the source.

T1 sequence (P36894 24-152 limits assumed): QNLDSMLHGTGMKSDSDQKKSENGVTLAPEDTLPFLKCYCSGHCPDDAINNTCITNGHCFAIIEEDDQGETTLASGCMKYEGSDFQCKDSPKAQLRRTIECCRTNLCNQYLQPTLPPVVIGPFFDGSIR

Turning to “DYHDPSLPTLRK (Completely synthesized in the lab - Ph.D.-12 Phage Display Peptide Library Kit (New England Biolabs))”, the “Binding to BMPR1A found by biopanning (frequency among sequenced plaques)” value (“Binding to BMPR1A found by biopanning” for short) in the assay with BMPR1A [1] is reported as “discovered to bind”. Further, in the assay with BMPR2 [2], the “Binding to BMPR2 found by biopanning (frequency among sequenced plaques)” value (“Binding to BMPR2 found by biopanning” for short) is “discovered to bind”.
On to “TAKSLPMRPGPL (Completely synthesized in the lab - Ph.D.-12 Phage Display Peptide Library Kit (New England Biolabs))”, for which, in the assay with BMPR1A [1], the “Binding to BMPR1A found by biopanning” value is “discovered to bind”. The “Binding to BMPR2 found by biopanning” value in the assay with BMPR2 [2] is reported as “discovered to bind”.
As to “GNNPLHVHHDKR (Completely synthesized in the lab - Ph.D.-12 Phage Display Peptide Library Kit (New England Biolabs))”, in the assay with BMPR1A [1], the “Binding to BMPR1A found by biopanning” value was “discovered to bind”. The “Binding to BMPR2 found by biopanning” value in the assay with BMPR2 [2] is “discovered to bind”.
As to “NAKYPTMRPGPL (Completely synthesized in the lab - Ph.D.-12 Phage Display Peptide Library Kit (New England Biolabs))”, the “Binding to BMPR1A found by biopanning” value with BMPR1A [1] was “discovered to bind”. Also, the “Binding to BMPR2 found by biopanning” value with BMPR2 [2] is on record as “discovered to bind”.
For “TSKYLTMRPGPK (Completely synthesized in the lab - Ph.D.-12 Phage Display Peptide Library Kit (New England Biolabs))”, the “Binding to BMPR1A found by biopanning” value with BMPR1A [1] is on record as “discovered to bind”. Moreover, the “Binding to BMPR2 found by biopanning” value with BMPR2 [2] is given as “discovered to bind”.
“RDYHPRDHTATW (Completely synthesized in the lab - Ph.D.-12 Phage Display Peptide Library Kit (New England Biolabs))”: the “Binding to BMPR1A found by biopanning” value with BMPR1A [1] is listed as “discovered to bind”. Moreover, the “Binding to BMPR2 found by biopanning” value with BMPR2 [2] was “most frequent peptide; also recorded: discovered to bind”. For the same sequence, in assay [3], the “Binding of peptide-bearing phages to live hMSCs” value is “bound to what appeared to be the same location as the outer membrane; also recorded: demonstrated an ability to bind to the outer membrane”. The “Relative binding strength in ELISA to BMPR2” value with BMPR2 [4] is listed as “statistically significant binders”.
As to “TAKYLPMRPGPL (Completely synthesized in the lab - Ph.D.-12 Phage Display Peptide Library Kit (New England Biolabs))”, the “Relative binding strength in ELISA to BMPR1A” value in the assay with BMPR1A [5] is “best binders”. In addition, the “Binding to BMPR1A found by biopanning” value with BMPR1A [1] was “most frequently obtained peptide; also recorded: discovered to bind”. Moreover, the “Binding to BMPR2 found by biopanning” value with BMPR2 [2] is recorded as “discovered to bind”.
On to “NAKYPTMRPGPK (Completely synthesized in the lab - Ph.D.-12 Phage Display Peptide Library Kit (New England Biolabs))”, for which, in the assay with BMPR1A [1], the “Binding to BMPR1A found by biopanning” value is “discovered to bind”. Further, in the assay with BMPR2 [2], the “Binding to BMPR2 found by biopanning” value is reported as “discovered to bind”.
